According to patent US10556944B2, “Fab region-binding peptide” (priority 2013, dated 2020):
Where no end group is shown, it is not given here.

Key:
[1] = test system: anti-Her2antibody-Fab (IgG-Fab derived from anti-Her2 monoclonal antibody, Trastuzumab); assay: Biacore 3000 surface plasmon resonance, affinity of SpG-β1 mutants for immobilized IgG-Fab; format: binding, human; conditions: Table 1, Example 2, GST-fused one-domain peptide; for KA: KA=kon/koff, 1:1 binding model; for KA Vs. Wild: fold of wild-type KA; for kon: 25° C., pH 7.4
Procedure: The Fab fragment was prepared by cleaving a humanized monoclonal IgG formulation as a starting material into a Fab fragment and an Fc fragment by papain, and separating and purifying only the Fab fragment.
Specifically, a humanized monoclonal IgG formulation (Herceptin, manufactured by Chugai Pharmaceutical Co., Ltd., in the case of anti-Her2 monoclonal antibody) was dissolved in a papain digestion buffer (0.1 M AcOH—AcONa, 2 mM EDTA, 1 mM cysteine, pH 5.5). Papain immobilized agarose: Papain Agarose from papaya latex (manufactured by Sigma) was added to the solution and the mixture was incubated at 37° C. for about 8 hours while being mixed with a rotator. The IgG-Fab was collected from flow-through fractions by affinity chromatography using a KanCapA column (manufactured by Kaneka Corporation). Thus, the IgG-Fab was separated and purified from the reaction solution (containing both the Fab fragment and the Fc fragment), which had been separated from the papain immobilized agarose. The separated IgG-Fab solution was purified by gel filtration chromatography using the Superdex 75 10/300 GL column (a standard buffer was used for equilibration and separation) to obtain an IgG-Fab solution.
(§1) The affinity of each of the SpG-β1 mutants produced in Example 1 (2) for the IgG-Fab was analyzed by using a biosensor: Biacore 3000 using surface plasmon resonance principle (manufactured by GE Healthcare Bioscience). In this example, the IgG-Fab produced in Example 2 (1) was immobilized on a sensor chip and each peptide was added on the chip. The interaction between the IgG-Fab and the peptide was detected. The IgG-Fab was immobilized on the sensor chip CM5 by amine coupling using N-hydroxysuccinimide (NHS) and N-ethyl-N′-(3-dimethylaminopropyl)carbodiimide hydrochloride (EDC), and ethanolamine was used for blocking (all the sensor chips and the immobilization reagents were manufactured by GE Healthcare Bioscience). The IgG-Fab solution was about 10-fold diluted in an immobilization buffer (10 mM CH3COOH—CH3COONa, pH 4.5) and the IgG-Fab was immobilized on the sensor chip in accordance with the protocol attached to the Biacore 3000. Further, a reference cell to be used as a negative control was also prepared by immobilizing ethanolamine for another flow cell on the chip after activation by EDC/NHS. Various SpG-31 mutants were appropriately prepared at concentrations of 0.1 to 100 μM by using a running buffer (20 mM NaH2PO4—Na2HPO4, 150 mM NaCl, 0.005% P-20, pH 7.4). Each peptide solution was added on the sensor chip at a flow rate of 40 μL/minute for 60 seconds. A sensorgram of the binding reaction at 25° C. was sequentially plotted during the addition (binding phase, 60 seconds) and after the addition (dissociation phase, 60 seconds). After each sensorgram determination, the sensor chip was regenerated by adding 20 mM NaOH (for 30 seconds).

[2] = target: T1, anti-TNFα antibody-Fab (IgG-Fab derived from anti-TNFα monoclonal antibody, adalimumab) (Homo sapiens, UniProt P01834+P01857); assay: as above; format: binding
T1 construct: cleaving a humanized monoclonal IgG formulation as a starting material into a Fab fragment and an Fc fragment by papain; purchased
Procedure: as §1
The affinity of the SpG-β1 mutant for the IgG-Fab was measured in the same manner as in the experiment of Example 2.
The affinity of the SpG-β1 mutant for the IgG-Fab was measured in the same manner as in the experiment of Example 3. In this experiment, the measurement was performed on the GST-cleaved type after the GST cleavage (Pep-). Further, not only one domain type (Pep.1d) but also one domain type with Cys at the C-terminus (Pep.1dC) and two domain type with Cys at the C-terminus (Pep.2dC) were used to perform the experiment.

[3] = Table 1, Example 2, GST-fused one-domain peptide, 25° C., pH 7.4
[4] = Table 1, Example 2, GST-fused one-domain peptide, KA=kon/koff, 1:1 binding model
[5] = Table 1, Example 2, fold of wild-type KA, GST-fused one-domain peptide
[6] = Table 3, Example 4, GST-cleaved type (Pep-), constructs Pep.1d, Pep.1dC, Pep.2dC
[7] = Table 3, Example 4, fold of wild-type KA of the same construct type

Substance: K10R/K13T/K28Q/F30L/Q32R: GST-fused one-domain SpG-β1 mutant, amino acid SEQ ID NO: 17 (TTYKLILNGRTLTGETTTEAVDAATAEQVLKRYANDNGVDGEWTYDDATKTFTVTE; also: GST-fused, end not given here)
- KA [1]: 1.72e+06 M⁻¹
- KA Vs. Wild [1]: 3.2

Substance: K13T/E19I/F30L: GST-fused one-domain SpG-β1 mutant, amino acid SEQ ID NO: 15 (TTYKLILNGKTLTGETTTIAVDAATAEKVLKQYANDNGVDGEWTYDDATKTFTVTE; also: GST-fused)
- kon [2, 3]: 92300 s/M
- KA [2, 4]: 1.8e+06 M⁻¹
- KA Vs. Wild [2, 5]: 2.8
- kon [1]: 141000 s/M
- KA [1]: 1.99e+06 M⁻¹
- KA Vs. Wild [1]: 3.6

Substance: K13T/E19I/V39I: GST-fused one-domain SpG-β1 mutant, amino acid SEQ ID NO: 19 (TTYKLILNGKTLTGETTTIAVDAATAEKVFKQYANDNGIDGEWTYDDATKTFTVTE; also: GST-fused)
- kon [2, 3]: 145000 s/M
- KA [2, 4]: 2.74e+06 M⁻¹
- KA Vs. Wild [2, 5]: 4.3
- kon [1]: 222000 s/M
- KA [1]: 2.83e+06 M⁻¹
- KA Vs. Wild [1]: 5.2

Substance: K13T/F30L/D36G (TTYKLILNGKTLTGETTTEAVDAATAEKVLKQYANGNGVDGEWTYDDATKTFTVTE)
- KA [1]: 3.17e+06 M⁻¹
- KA Vs. Wild [1]: 5.8

Substance: Pep.1dC K13T/T18A/E19I/V21A/K28I/F30L/Y33F/V39I: SpG-β1 mutant, SEQ ID NO: 85, GST-cleaved one domain type with Cys at the C-terminus (TTYKLILNGKTLTGETTAIAADAATAEIVLKQFANDNGIDGEWTYDDATKTFTVTE; C-terminal Cys; SpG mutant)
- KA [2, 6]: 9.11e+06 M⁻¹
- koff [2, 6]: 0.0097 s⁻¹
- kon [2, 6]: 88300 s/M
- KA Vs. Wild [2, 7]: 51

Substance: Pep.2dC K10R/K13T/T18A/E19I/V21D/T25M/F30L/Y33F/N35F/D47A: SpG-β1 mutant, SEQ ID NO: 87, GST-cleaved two domain type with Cys at the C-terminus
- KA [2, 6]: 8.56e+07 M⁻¹
- koff [2, 6]: 0.0014 s⁻¹
- kon [2, 6]: 117000 s/M
- KA Vs. Wild [2, 7]: 253
- KA Vs. Wild ([2]; Table 3, Example 4, fold of wild-type KA of the same construct type, listed as Pep-SpGβ1-K10R/K13T/T18A/E19I/V21D/T25M/F30L/Y33F/N35F/D47A.2dC): ≥ 200

Substance: Pep.2dC K13T/E19I/V21D/T25M/F30L/Y33F/N35F/D47A (TTYKLILNGKTLTGETTTIADDAAMAEKVLKQFAFDNGVDGEWTYDAATKTFTVTE)
- KA [2, 6]: 9.68e+06 M⁻¹
- koff [2, 6]: 0.0058 s⁻¹
- kon [2, 6]: 55700 s/M
- KA Vs. Wild [2, 7]: 29

Substance: Pep.2dC K13T/T18A/E19I/V21A/K28I/F30L/Y33F/V39I (TTYKLILNGKTLTGETTAIAADAATAEIVLKQFANDNGIDGEWTYDDATKTFTVTE)
- KA [2, 6]: 1.02e+07 M⁻¹
- koff [2, 6]: 0.0062 s⁻¹
- kon [2, 6]: 63900 s/M
- KA Vs. Wild [2, 7]: 30
